# IntAct's records for PubMed 25910212
# B1: EF-hand domain-containing protein 1 (Homo sapiens), Q5JVL4 (parent)
# chain: MVSNPVHGLPFLPGTSFKDSTKTAFHRSQTLSYRNGYAIVRRPTVGIGGDRLQFNQLSQAELDELASKAPVLTYGQPKQAPPADFIPAHVAFDKKVLKFDAYFQEDVPMSTEEQYRIRQVNIYYYLEDDSMSVIEPVVENSGILQGKLIKRQRLAKNDRGDHYHWKDLNRGINITIYGKTFRVVDCDQFTQVFLESQGIELNPPEKMALDPYTELRKQPLRKYVTPSDFDQLKQFLTFDKQVLRFYAIWDDTDSMYGECRTYIIHYYLMDDTVEIREVHERNDGRDPFPLLMNRQRVPKVLVENAKNFPQCVLEISDQEVLEWYTAKDFIVGKSLTILGRTFFIYDCDPFTRRYYKEKFGITDLPRIDVSKREPPPVKQELPPYNGFGLVEDSAQNCFALIPKAPKKDVIKMLVNDNKVLRYLAVLESPIPEDKDRRFVFSYFLATDMISIFEPPVRNSGIIGGKYLGRTKVVKPYSTVDNPVYYGPSDFFIGAVIEVFGHRFIILDTDEYVLKYMESNAAQYSPEALASIQNHVRKREAPAPEAESKQTEKDPGVQELEALIDTIQKQLKDHSCKDNIREAFQIYDKEASGYVDRDMFFKICESLNVPVDDSLVKELIRMCSHGEGKINYYNFVRAFSN
# partner: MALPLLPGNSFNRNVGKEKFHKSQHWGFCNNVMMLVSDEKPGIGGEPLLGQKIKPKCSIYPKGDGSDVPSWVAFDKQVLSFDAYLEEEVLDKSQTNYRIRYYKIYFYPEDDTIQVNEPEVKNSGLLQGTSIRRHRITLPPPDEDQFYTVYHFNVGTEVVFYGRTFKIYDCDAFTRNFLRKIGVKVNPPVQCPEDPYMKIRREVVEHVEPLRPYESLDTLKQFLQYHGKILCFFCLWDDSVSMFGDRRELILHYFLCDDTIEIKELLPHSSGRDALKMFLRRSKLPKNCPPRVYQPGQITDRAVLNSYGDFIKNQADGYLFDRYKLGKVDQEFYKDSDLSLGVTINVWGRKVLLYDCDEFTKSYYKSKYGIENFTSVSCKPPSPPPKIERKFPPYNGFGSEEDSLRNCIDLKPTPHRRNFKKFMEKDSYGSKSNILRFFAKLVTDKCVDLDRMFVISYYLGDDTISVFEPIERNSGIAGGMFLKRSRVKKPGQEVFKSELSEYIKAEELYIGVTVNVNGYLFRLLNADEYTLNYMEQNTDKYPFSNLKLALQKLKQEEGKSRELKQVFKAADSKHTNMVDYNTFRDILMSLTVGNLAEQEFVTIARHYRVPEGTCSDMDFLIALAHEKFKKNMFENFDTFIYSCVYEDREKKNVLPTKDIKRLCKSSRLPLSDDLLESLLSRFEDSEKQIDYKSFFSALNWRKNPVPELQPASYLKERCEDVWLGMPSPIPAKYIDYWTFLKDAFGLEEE
# B2: Beta-crystallin A4 (Homo sapiens), P53673 (parent)
# chain: MTLQCTKSAGPWKMVVWDEDGFQGRRHEFTAECPSVLELGFETVRSLKVLSGAWVGFEHAGFQGQQYILERGEYPSWDAWGGNTAYPAERLTSFRPAACANHRDSRLTIFEQENFLGKKGELSDDYPSLQAMGWEGNEVGSFHVHSGAWVCSQFPGYRGFQYVLECDHHSGDYKHFREWGSHAPTFQVQSIRRIQQ
# partner: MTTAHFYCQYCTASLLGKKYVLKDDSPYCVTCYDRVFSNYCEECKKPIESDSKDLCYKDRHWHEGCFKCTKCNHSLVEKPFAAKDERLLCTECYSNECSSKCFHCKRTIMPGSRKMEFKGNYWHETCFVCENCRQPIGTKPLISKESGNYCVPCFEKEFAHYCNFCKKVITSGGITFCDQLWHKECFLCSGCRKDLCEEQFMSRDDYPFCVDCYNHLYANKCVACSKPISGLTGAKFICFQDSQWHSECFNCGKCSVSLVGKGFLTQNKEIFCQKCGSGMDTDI
# B3: Multifunctional procollagen lysine hydroxylase and glycosyltransferase LH3 (Homo sapiens), O60568 (parent)
# chain: MTSSGPGPRFLLLLPLLLPPAASASDRPRGRDPVNPEKLLVITVATAETEGYLRFLRSAEFFNYTVRTLGLGEEWRGGDVARTVGGGQKVRWLKKEMEKYADREDMIIMFVDSYDVILAGSPTELLKKFVQSGSRLLFSAESFCWPEWGLAEQYPEVGTGKRFLNSGGFIGFATTIHQIVRQWKYKDDDDDQLFYTRLYLDPGLREKLSLNLDHKSRIFQNLNGALDEVVLKFDRNRVRIRNVAYDTLPIVVHGNGPTKLQLNYLGNYVPNGWTPEGGCGFCNQDRRTLPGGQPPPRVFLAVFVEQPTPFLPRFLQRLLLLDYPPDRVTLFLHNNEVFHEPHIADSWPQLQDHFSAVKLVGPEEALSPGEARDMAMDLCRQDPECEFYFSLDADAVLTNLQTLRILIEENRKVIAPMLSRHGKLWSNFWGALSPDEYYARSEDYVELVQRKRVGVWNVPYISQAYVIRGDTLRMELPQRDVFSGSDTDPDMAFCKSFRDKGIFLHLSNQHEFGRLLATSRYDTEHLHPDLWQIFDNPVDWKEQYIHENYSRALEGEGIVEQPCPDVYWFPLLSEQMCDELVAEMEHYGQWSGGRHEDSRLAGGYENVPTVDIHMKQVGYEDQWLQLLRTYVGPMTESLFPGYHTKARAVMNFVVRYRPDEQPSLRPHHDSSTFTLNVALNHKGLDYEGGGCRFLRYDCVISSPRKGWALLHPGRLTHYHEGLPTTWGTRYIMVSFVDP
# B4: Hypoxanthine-guanine phosphoribosyltransferase (Homo sapiens), P00492 (parent)
# chain: MATRSPGVVISDDEPGYDLDLFCIPNHYAEDLERVFIPHGLIMDRTERLARDVMKEMGGHHIVALCVLKGGYKFFADLLDYIKALNRNSDRSIPMTVDFIRLKSYCNDQSTGDIKVIGGDDLSTLTGKNVLIVEDIIDTGKTMQTLLSLVRQYNPKMVKVASLLVKRTPRSVGYKPDFVGFEIPDKFVVGYALDYNEYFRDLNHVCVISETGKAKYKA
# partner: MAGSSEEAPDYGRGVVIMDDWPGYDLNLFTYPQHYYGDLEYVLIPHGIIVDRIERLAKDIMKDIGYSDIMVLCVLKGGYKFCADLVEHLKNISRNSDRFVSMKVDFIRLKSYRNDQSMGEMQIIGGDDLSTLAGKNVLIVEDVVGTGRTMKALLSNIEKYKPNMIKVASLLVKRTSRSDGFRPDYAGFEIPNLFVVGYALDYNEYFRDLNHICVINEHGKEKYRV
# B5: Ribose-phosphate pyrophosphokinase 1 (Homo sapiens), P60891 (parent)
# chain: MPNIKIFSGSSHQDLSQKIADRLGLELGKVVTKKFSNQETCVEIGESVRGEDVYIVQSGCGEINDNLMELLIMINACKIASASRVTAVIPCFPYARQDKKDKSRAPISAKLVANMLSVAGADHIITMDLHASQIQGFFDIPVDNLYAEPAVLKWIRENISEWRNCTIVSPDAGGAKRVTSIADRLNVDFALIHKERKKANEVDRMVLVGDVKDRVAILVDDMADTCGTICHAADKLLSAGATRVYAILTHGIFSGPAISRINNACFEAVVVTNTIPQEDKMKHCSKIQVIDISMILAEAIRRTHNGESVSYLFSHVPL
# partner: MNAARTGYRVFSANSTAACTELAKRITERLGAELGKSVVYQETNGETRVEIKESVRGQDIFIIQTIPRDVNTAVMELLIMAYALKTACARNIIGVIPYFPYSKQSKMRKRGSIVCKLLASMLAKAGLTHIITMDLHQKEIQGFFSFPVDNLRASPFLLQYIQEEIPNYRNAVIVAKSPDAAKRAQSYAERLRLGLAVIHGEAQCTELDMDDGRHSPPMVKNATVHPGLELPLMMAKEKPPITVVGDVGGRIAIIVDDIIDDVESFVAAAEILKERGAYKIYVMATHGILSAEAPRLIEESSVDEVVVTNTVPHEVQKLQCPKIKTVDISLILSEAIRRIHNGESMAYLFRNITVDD
# B6: Basal cell adhesion molecule (Homo sapiens), P50895 (parent)
# chain: MEPPDAPAQARGAPRLLLLAVLLAAHPDAQAEVRLSVPPLVEVMRGKSVILDCTPTGTHDHYMLEWFLTDRSGARPRLASAEMQGSELQVTMHDTRGRSPPYQLDSQGRLVLAEAQVGDERDYVCVVRAGAAGTAEATARLNVFAKPEATEVSPNKGTLSVMEDSAQEIATCNSRNGNPAPKITWYRNGQRLEVPVEMNPEGYMTSRTVREASGLLSLTSTLYLRLRKDDRDASFHCAAHYSLPEGRHGRLDSPTFHLTLHYPTEHVQFWVGSPSTPAGWVREGDTVQLLCRGDGSPSPEYTLFRLQDEQEEVLNVNLEGNLTLEGVTRGQSGTYGCRVEDYDAADDVQLSKTLELRVAYLDPLELSEGKVLSLPLNSSAVVNCSVHGLPTPALRWTKDSTPLGDGPMLSLSSITFDSNGTYVCEASLPTVPVLSRTQNFTLLVQGSPELKTAEIEPKADGSWREGDEVTLICSARGHPDPKLSWSQLGGSPAEPIPGRQGWVSSSLTLKVTSALSRDGISCEASNPHGNKRHVFHFGTVSPQTSQAGVAVMAVAVSVGLLLLVVAVFYCVRRKGGPCCRQRREKGAPPPGEPGLSHSGSEQPEQTGLLMGGASGGARGGSGGFGDEC
# partner: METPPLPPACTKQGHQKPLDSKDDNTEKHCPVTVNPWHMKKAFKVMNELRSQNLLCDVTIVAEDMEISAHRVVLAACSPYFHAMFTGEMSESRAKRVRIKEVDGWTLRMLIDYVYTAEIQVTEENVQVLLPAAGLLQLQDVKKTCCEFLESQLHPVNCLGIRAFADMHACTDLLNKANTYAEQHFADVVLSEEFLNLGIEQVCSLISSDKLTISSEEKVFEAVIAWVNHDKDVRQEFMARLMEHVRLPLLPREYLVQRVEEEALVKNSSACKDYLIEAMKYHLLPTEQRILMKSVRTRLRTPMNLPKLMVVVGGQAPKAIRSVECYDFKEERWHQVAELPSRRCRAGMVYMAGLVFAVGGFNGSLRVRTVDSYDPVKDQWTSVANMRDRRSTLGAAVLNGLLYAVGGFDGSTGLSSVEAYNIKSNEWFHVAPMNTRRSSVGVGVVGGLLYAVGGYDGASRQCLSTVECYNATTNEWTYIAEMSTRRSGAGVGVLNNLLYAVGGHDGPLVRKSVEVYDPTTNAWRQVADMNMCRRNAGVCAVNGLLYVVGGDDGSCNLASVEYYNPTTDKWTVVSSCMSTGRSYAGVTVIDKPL
# Variants of: B1
# Settings: with efhc2_human EFHC2, Q5JST6
row,Variant,effect of a mutation on the interaction
1,A394S,disrupting interaction strength
2,R221H,disrupting interaction strength

# Variants of: B2
# Settings: with fhl5_human FHL5, Q5TD97
row,Variant,effect of a mutation on the interaction
1,F94S,disrupting interaction strength
2,L69P,disrupting interaction strength
3,V36M,disrupting interaction strength

# Variants of: B3
# Settings: with ehmt2_human EHMT2, Q96KQ7
# Sequence of ehmt2_human EHMT2, Q96KQ7 (Q96KQ7 whole entry): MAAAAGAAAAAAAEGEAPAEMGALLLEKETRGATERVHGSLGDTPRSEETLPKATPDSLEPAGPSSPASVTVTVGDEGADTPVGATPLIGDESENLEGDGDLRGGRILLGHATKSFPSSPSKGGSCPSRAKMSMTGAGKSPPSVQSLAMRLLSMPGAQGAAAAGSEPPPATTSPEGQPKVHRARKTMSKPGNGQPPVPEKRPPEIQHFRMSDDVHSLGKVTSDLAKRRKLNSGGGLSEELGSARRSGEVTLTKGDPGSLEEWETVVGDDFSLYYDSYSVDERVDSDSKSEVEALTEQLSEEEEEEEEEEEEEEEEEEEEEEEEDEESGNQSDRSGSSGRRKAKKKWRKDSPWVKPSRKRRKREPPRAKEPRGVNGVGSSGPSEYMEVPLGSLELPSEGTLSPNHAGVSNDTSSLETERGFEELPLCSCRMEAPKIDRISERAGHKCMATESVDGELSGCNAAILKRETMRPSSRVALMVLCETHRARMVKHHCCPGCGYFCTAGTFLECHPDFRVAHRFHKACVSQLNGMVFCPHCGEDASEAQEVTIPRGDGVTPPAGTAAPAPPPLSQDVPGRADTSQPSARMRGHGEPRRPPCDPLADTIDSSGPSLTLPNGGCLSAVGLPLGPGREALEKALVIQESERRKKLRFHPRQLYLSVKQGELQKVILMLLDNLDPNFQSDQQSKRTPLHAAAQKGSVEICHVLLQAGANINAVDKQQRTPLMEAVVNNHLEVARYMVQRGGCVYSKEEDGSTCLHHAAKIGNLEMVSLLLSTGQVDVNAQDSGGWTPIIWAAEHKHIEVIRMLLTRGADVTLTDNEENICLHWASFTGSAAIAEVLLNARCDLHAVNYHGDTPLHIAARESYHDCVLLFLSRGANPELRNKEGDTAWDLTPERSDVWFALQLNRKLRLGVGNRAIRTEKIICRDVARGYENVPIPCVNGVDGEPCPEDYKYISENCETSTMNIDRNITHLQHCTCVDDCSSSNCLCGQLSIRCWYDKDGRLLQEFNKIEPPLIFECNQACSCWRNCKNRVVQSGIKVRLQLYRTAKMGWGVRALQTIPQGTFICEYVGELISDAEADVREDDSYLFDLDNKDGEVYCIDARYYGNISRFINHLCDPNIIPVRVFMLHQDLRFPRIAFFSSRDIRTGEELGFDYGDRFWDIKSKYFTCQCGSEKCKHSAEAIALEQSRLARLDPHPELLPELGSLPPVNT
row,Variant,effect of a mutation on the interaction
1,N223S,with no effect

# Variants of: B4
# Settings: with prdc1_human PRTFDC1, Q9NRG1
row,Variant,effect of a mutation on the interaction
1,D194H,disrupting interaction strength

# Variants of: B5
# Settings: with kpra_human PRPSAP1, Q14558
row,Variant,effect of a mutation on the interaction
1,N114S,with no effect
2,D52H,with no effect
3,D183H,with no effect

# Variants of: B6
# Settings: with klhl2_human KLHL2, O95198
row,Variant,effect of a mutation on the interaction
1,T539A,with no effect
